Data reported in patent US20240165253A1 (REMEGEN, published 2024).

How the values were obtained:
[1] = biological target: T1, c-Met protein (UniProt P08581 25-932, limits assumed); assay: ELISA, plate coated with c-Met protein at 2 ug/ml, HRP detection antibody
T1 construct: The construct is not described; also called c-Met antigen
Procedure: The c-Met protein was prepared with a diluent to a final concentration of 2 μg/ml, and added to a microplate at 100 μl per well, overnight at 4° C. The solution in the well was discarded, and the plate was washed three times with PBST. The plate was added with a blocking solution at 300 μl/well and incubated at 37° C. for 2 h. The solution in the well was discarded, and the plate was washed three times with PBST. […] The solution in the well was discarded, and the plate was washed three times with PBST. HRP detection antibody was prepared by adding diluent at a dilution of 1:5000, added at 100 μl per well, and incubated at 37° C. for 1 h. The solution in the well was discarded, and the plate was washed three times with PB ST. The plate was added with TMB color developing solution, incubated at room temperature for 2 min, and then added with Elisa stop solution.

[2] = biological target: T2, soluble ED protein (UniProt P08581 25-932, limits assumed); assay: ELISA, plate coated with soluble ED protein, HRP anti-human IgG Fc detection
T2 construct: domain: ED; It is read here as the c-Met extracellular domain because the antibodies are anti-c-Met
T2 sequence (P08581 25-932 limits assumed): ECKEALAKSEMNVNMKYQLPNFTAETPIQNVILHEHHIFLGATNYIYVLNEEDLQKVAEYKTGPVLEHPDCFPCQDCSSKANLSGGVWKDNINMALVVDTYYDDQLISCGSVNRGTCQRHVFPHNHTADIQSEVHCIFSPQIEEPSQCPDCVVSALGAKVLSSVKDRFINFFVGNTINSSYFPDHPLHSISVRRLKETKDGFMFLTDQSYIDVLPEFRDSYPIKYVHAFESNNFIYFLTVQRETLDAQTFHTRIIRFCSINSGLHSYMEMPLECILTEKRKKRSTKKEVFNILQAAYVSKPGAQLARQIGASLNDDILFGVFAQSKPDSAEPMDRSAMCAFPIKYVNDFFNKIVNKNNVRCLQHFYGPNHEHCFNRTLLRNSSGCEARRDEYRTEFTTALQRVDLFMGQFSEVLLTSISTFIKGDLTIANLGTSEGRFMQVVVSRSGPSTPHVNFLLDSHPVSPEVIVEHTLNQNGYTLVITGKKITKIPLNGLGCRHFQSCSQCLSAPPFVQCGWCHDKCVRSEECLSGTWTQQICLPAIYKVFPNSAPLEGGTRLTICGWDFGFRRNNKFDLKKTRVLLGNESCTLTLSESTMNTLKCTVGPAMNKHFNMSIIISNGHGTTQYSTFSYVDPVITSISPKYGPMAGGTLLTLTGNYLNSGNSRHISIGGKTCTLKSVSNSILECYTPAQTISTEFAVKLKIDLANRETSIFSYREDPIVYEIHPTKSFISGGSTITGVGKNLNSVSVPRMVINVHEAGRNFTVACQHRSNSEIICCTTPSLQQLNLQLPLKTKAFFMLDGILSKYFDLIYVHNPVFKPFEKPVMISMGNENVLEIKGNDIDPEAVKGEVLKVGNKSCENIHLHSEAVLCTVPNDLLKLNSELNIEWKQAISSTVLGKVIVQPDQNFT
Procedure: The affinities of chimeric cAAJ8D6 and the humanized antibody AAJ8D6 were determined by ELISA. A 96-well plate was coated with soluble ED protein and then incubated with diluted antibodies. ED-related antibodies were detected with an HRP-conjugated goat F(ab′)2 anti-human IgG Fc-specific secondary antibody.

T1 sequence (P08581 25-932 limits assumed): as above

Row | EC50 [1] | EC50 [2] | Binder
1 | 0.54 ng/mL | 3.53 ng/mL | anti-c-Met humanized antibody AAJ8D6 (antibody, human IgG1, kappa, V domains shown, also called AAJ8D6 antibody) VH: QVQLEQSGPEVVKPGASVKVSCKASGYSFTSYWMHWVRQAPGQGLEWMGMIDPSDSESRLNQKFKDRVTMTVDTPTSTVYMELSSPRSEDTAVYYCARSGYHGTSYWYFDVWGQGTLVTVSS VL: DIVMTQSPLSLPVTPGEPASISCRSSKSLLHSDGITYLYWYLQKPGQSPQLLIYQMSNLASGVPDRFSGSGSGTDFTLKISRVEAEDVGVYYCAQNLELPPTFGGGTKVEIKR
2 | 1.33 ng/mL |  | ABT-700 (telisotuzumab) (antibody, V domains shown) VH: QVQLVQSGAEVKKPGASVKVSCKASGYIFTAYTMHWVRQAPGQGLEWMGWIKPNNGLANYAQKFQGRVTMTRDTSISTAYMELSRLRSDDTAVYYCARSEITTEFDYWGQGTLVTVSS VL: DIVMTQSPDSLAVSLGERATINCKSSESVDSYANSFLHWYQQKPGQPPKLLIYRASTRESGVPDRFSGSGSGTDFTLTISSLQAEDVAVYYCQQSKEDPLTFGGGTKVEIKR
